The source of these data is article PMC8872793.

The target of this series is Mtb UvrD1 WT (Mycobacterium tuberculosis H37Rv, UniProt P9WMQ1 1-771). As to the kind of experiment: tryptophan fluorescence dissociation kinetics.
Sequence of Mtb UvrD1 WT (P9WMQ1 whole entry): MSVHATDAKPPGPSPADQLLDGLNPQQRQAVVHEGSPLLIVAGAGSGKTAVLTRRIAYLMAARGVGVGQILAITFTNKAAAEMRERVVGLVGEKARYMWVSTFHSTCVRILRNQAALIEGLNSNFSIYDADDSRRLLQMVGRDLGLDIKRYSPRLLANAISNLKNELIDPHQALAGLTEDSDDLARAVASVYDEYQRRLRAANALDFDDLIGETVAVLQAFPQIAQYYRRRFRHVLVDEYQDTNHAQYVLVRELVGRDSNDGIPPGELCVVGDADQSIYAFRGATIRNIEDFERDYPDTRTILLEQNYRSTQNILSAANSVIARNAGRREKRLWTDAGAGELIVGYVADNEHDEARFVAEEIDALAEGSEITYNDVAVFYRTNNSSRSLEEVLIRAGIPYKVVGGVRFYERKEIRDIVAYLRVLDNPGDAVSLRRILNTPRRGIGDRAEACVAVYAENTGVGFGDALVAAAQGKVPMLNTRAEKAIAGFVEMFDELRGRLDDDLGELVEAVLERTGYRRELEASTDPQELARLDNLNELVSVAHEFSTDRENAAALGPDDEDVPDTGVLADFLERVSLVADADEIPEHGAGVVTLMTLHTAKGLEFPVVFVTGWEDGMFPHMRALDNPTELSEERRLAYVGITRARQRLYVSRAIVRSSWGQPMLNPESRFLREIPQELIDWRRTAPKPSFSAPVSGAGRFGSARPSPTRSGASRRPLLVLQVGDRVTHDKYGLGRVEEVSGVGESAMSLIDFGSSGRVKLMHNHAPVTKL

B1: (dT)100 (ssDNA)
DNA: TTTTTTTTTTTTTTTTTTTTTTTTTTTTTTTTTTTTTTTTTTTTTTTTTTTTTTTTTTTTTTTTTTTTTTTTTTTTTTTTTTTTTTTTTTTTTTTTTTTT
Regarding B1, the binding result is “binds”.
